# In publication PMC8857485, “Prostate secretory protein 94 inhibits sterol binding and export by the mammalian CAP protein CRISP2 in a calcium-sensitive manner” (The Journal of Biological Chemistry, 2022):
# B1: CRISP2 (cysteine-rich secretory protein 2), C-terminal polyhistidine tag [modified: RED-tris-NTA fluorescent label on the His tag; RED-tris-NTA fluorescent label on the His tag] [human] / prostate secretory protein of … (parent)
# chain 1: KDPAFTALLTTQLQVQREIVNKHNELRKAVSPPASNMLKMEWSREVTTNAQRWANKCTLQHSDPEDRKTSTRCGENLYMSSDPTSWSSAIQSWYDEILDFVYGVGPKSPNAVVGHYTQLVWYSTYQVGCGIAYCPNQDSLKYYYVCQYCPAGNNMNRKNTPYQQGTPCAGCPDDCDKGLCTNSCQYQDLLSNCDSLKNTAGCEHELLKEKCKATCLCENKIY
# chain 2: SCYFIPNEGVPGDSTRKCMDLKGNKHPINSEWQTDNCETCTCYETEISCCTLVSTPVGYDKDNCQRIFKKEDCKYIVVEKKDPKKTCSVSEWII
# Variants of: B1
# Assay: microscale thermophoresis
# Conditions: with prostate secretory protein of 94 amino acids (PSP94), measurements in triplicates, PSP94 titrated (x axis PSP94 [nM])
row,Kd [nM],Variant
1,4,chain 1 N76P L77G
